# From patent publication US20120184020A1, “ENGINEERED MICROORGANISMS WITH ENHANCED FERMENTATION ACTIVITY” (Verdezyne, Inc., priority 2009, published 2012)
# B1: Escherichia coli: xylose isomerase from donor organism Escherichia coli (protein, listed as Escherichia coli)
# chain: MQAYFDQLDRVRYEGSKSSNPLAFRHYNPDELVLGKRMEEHLRFAACYWHTFCWNGADMFGVGAFNRPWQQPGEALALAKRKADVAFEFFHKLHVPFYCFHDVDVSPEGASLKEYINNFAQMVDVLAGKQEESGVKLLWGTANCFTNPRYGA
# B2: Arabidopsis thaliana: xylose isomerase from donor organism Arabidopsis thaliana (protein, UniProt Q9FKK7 1-477, looked up)
# Xylose isomerase: MKKVEFFMLLLCFIAASSLVSADPPTCPADLGGKCSDSDDWQGDFFPEIPKIKYEGPSSKNPLAYRWYNAEEEILGKKMKDWFRFSVAFWHTFRGTGGDPFGAATKYWPWEDGTNSVSMAKRRMRANFEFLKKLGVDWWCFHDRDIAPDGTTLEESNKNLDEVIELAKELQKGSKIKPLWGTAQLFLHPRYMHGGATSSEVGVYAYAAAQVKKAMEVTHYLGGENYVFWGGREGYQTLLNTDMGRELDHLARFFEAAVAYKKKIGFKGTLLIEPKPQEPTKHQYDWDAATAANFLRKYGLIDEFKLNIECNHATLSGHTCHHELETARINGLLGNIDANTGDAQTGWDTDQFLTDVGEATMVMMSVIKNGGIAPGGFNFDAKLRRESTDVEDLFIAHISGMDTMARGLRNAVKILEEGSLSELVRKRYATWDSELGKQIEEGKADFEYLEKKAKEFGEPKVSSAKQELAEMIFQSAM
# B3: Psudomonas savastanoi: xylose isomerase from donor organism Psudomonas savastanoi (protein, UniProt Q48J73 1-438, looked up)
# Xylose isomerase: MPYFPAVDKVRYEGPDSDSPLAFRHYDADKLILGKPMREHLRMAACYWHTFVWPGADMFGVGTFKRPWQGSGDPLELAIGKAETAFEFFSKLGIDYYSFHDTDVAPEGSSLKEYRNNFAQMIDQLERHQEQTGIKLLWGTANCFSNPRFAAGAASNPDPEVFAYAATQVFSAMNATQRLKGANYVLWGGREGYETLLNTDLRQEREQLGRFMRMVVEHKHKIGFKGDLLIEPKPQEPTKHQYDYDSATVFGFLQQYGLEKEIKVNIEANHATLAGHSFHHEIATAVSLGIFGSIDANRGDPQNGWDTDQFPNSVEEMTLATYEILKAGGFTNGGYNFDSKVRRQSLDEVDLFHGHVAAMDVLALALERAAAMVQNDKLQQFKDQRYAGWQQPFGKSLLAGEFSLESLAKHAFDKDLNPQAVSGRQELLEGVVNRFIYF
# B4: Bacillus licheniformis: xylose isomerase from donor organism Bacillus licheniformis (protein, UniProt P77832 1-448, looked up)
# Xylose isomerase: MFFRNIGMIEYEGADSENPYAFKYYNPDEFVGGKTMKEHLRFAVAYWHTFDADGKDPFGDGTMFRAWNRLTHPLDKAKARAEAAFEFFEKLGVPYFCFHDVDIVDEGATLRETFTYLDQMSSFLKEMMETSHVQLLWNTANMFTHPRYVHGAATSCNADVYAYAAAKVKKGLDIAKELGAENYVFWGGREGYETLLNTDMKLELENLSSFYRMAVEYAREIGFDGQFLIEPKPKEPTKHQYDFDAATTIAFLETYGLKDHFKLNLEANHATLAGHTFEHELRVAALHDMLGSIDANQGDLLLGWDTDEFPTDLYSAVLAMYEILKAGGFKTGGINFDAKVRRPSFADEDLFHAHIAGMDTYAVGLKVASRLLEDKALDQVIEERYESYTKGIGLEIKEGRTDLKKLAAYALENDHIENQSGRQERLKATVNRYLLNALREAPAGKETH
# B5: Clostridium thermosulfurogenes: xylose isomerase from donor organism Clostridium thermosulfurogenes (protein, UniProt P19148 1-439, looked up)
# Xylose isomerase: MNKYFENVSKIKYEGPKSNNPYSFKFYNPEEVIDGKTMEEHLRFSIAYWHTFTADGTDQFGKATMQRPWNHYTDPMDIAKARVEAAFEFFDKINAPYFCFHDRDIAPEGDTLRETNKNLDTIVAMIKDYLKTSKTKVLWGTANLFSNPRFVHGASTSCNADVFAYSAAQVKKALEITKELGGENYVFWGGREGYETLLNTDMEFELDNFARFLHMAVDYAKEIGFEGQFLIEPKPKEPTKHQYDFDVANVLAFLRKYDLDKYFKVNIEANHATLAFHDFQHELRYARINGVLGSIDANTGDMLLGWDTDQFPTDIRMTTLAMYEVIKMGGFDKGGLNFDAKVRRASFEPEDLFLGHIAGMDAFAKGFKVAYKLVKDRVFDKFIEERYASYKDGIGADIVSGKADFRSLEKYALERSQIVNKSGRQELLESILNQYLFAE
# B6: Bacillus subtilis: xylose isomerase from donor organism Bacillus subtilis (protein, UniProt P0CI80 1-445, looked up)
# Xylose isomerase: MAQSHSSSINYFGSANKVVYEGKDSTNPLAFKYYNPQEVIGGKTLKEHLRFSIAYWHTFTADGTDVFGAATMQRPWDHYKGMDLAKMRVEAAFEMFEKLDAPFFAFHDRDIAPEGSTLKETNQNLDMIMGMIKDYMRNSGVKLLWNTANMFTNPRFVHGAATSCNADVFAYAAAQVKKGLETAKELGAENYVFWGGREGYETLLNTDLKFELDNLARFMHMAVDYAKEIGYTGQFLIEPKPKEPTTHQYDTDAATTIAFLKQYGLDNHFKLNLEANHATLAGHTFEHELRMARVHGLLGSVDANQGHPLLGWDTDEFPTDLYSTTLAMYEILQNGGLGSGGLNFDAKVRRSSFEPDDLIYAHIAGMDAFARGLKVAHKLIEDRVFEDVIQHRYRSFTEGIGLEIIEGRANFHTLEQYALNHKSIKNESGRQEKLKAILNQYILEV
# B7: Staphylococcus xylosus: xylose isomerase from donor organism Staphylococcus xylosus (protein, UniProt P27157 1-439, looked up)
# Xylose isomerase: MSYFDINKVNYEGPKSNNAFSFKYYNPEEKLGNHSMSELLRFSVAYWHTFTADLSDPFGVGVAERDWDSLDEMEKAKARVEAIFEFMEKTRIDYFCFHDVDISPEGASLKESNENLDIIVELIKEKMDQTGKKLLWNTTNNFTHERFVHGAATSSNAEVFAYAAAKVKKSLEIAKKLGSENFVFWGGREGYESLLNTNMKLELDNLATFFKMAKSYADEIGYTGQFLIEPKPKEPTTHQYDTDVATAHAFLQKYDLDKDFKFNIEANHATLAGHTFQHELRYARDNNMLGSVDANQGHPLLGWDTDESTDVYDTTLAMYEILKNGGLAPGGLNFDAKPRRTSFKQEDLILTHIAGMDTFALGLRVAYKMIEDNFFENIMDEKYKSFNEGIGKKIVEGETSLKELEDYAFNINTINNTSDHLEVIKSQINQYILNINNKD
# B8: Clostridium phytofermentans: xylose isomerase from donor organism Clostridium phytofermentans (protein)
# chain: MKNYFPNVPEVKYEGPNSTNPFAFKYYDANKVVAGKTMKEHCRFALSWWHTLCAGGADPFGVTTMDRTYGNITDPMELAKAKVDAGFELMTKLGIEFFCFHDADIAPEGDTFEESKKNLFEIVDYIKEKMDQTGIKLLWGTANNFSHPRFMH
# modifications: Clostridium phytofermentans
# System: engineered yeast (S. cerevisiae)
# Test: Heterologous xylose isomerase expression in yeast (active yes/no)
# Format: cell-based
# Conditions: xylose isomerase of donor organism expressed in engineered yeast (S. cerevisiae)
row,Molecule,Active? (yes/no)
1,Streptomyces rubiginosus: xylose isomerase from donor organism Streptomyces rubiginosus,No
2,Actinoplanes missouriensis: xylose isomerase from donor organism Actinoplanes missouriensis,No
3,Streptomyces diastaticus subsp diastaticus: xylose isomerase from donor organism Streptomyces diastaticus subsp diastaticus,No
4,Thermus thermophilus: xylose isomerase from donor organism Thermus thermophilus,Yes
5,Bacteroides thetaiotaomicron: xylose isomerase from donor organism Bacteroides thetaiotaomicron,Yes
6,B1,No
7,B2,No
8,B3,No
9,B4,No
10,B5,No
11,B6,No
12,B7,No
13,B8,Yes
